In the Human Domainome abundance scans (Beltran et al. 2025):

B1: Nanos homolog 2, residues 63 to 115; numbered along this chain, P60321 (parent)
chain: CNFCKHNGESRHVYSSHQLKTPDGVVVCPILRHYVCPVCGATGDQAHTLKYCP

Variants of: B1
Experiment: abundance fitness (aPCA) (normalised: wild type 0, dead -1); higher = more abundant; growth selection in yeast, the domain comes from the species named
Conditions: Homo sapiens

Abundance fitness of substitutions, site by site:
C36: T -0.804; E -0.627; P -0.74; N -0.675; R -0.658; Q -0.471; V -0.93; G -0.826; S -0.699; W -1.16; D -0.444; L -1; Y -0.726; M -0.75; H -0.623; F -0.888; I -0.976; A -0.416
Q45: G -0.003; E -0.186; F -0.043; D -0.015; C -0.186; A -0.069; I -0.214
C39: K -0.608; H -0.597; G -0.731; E -0.484; V -0.702; R -0.696; M -0.717; T -0.58; A -0.986; I -0.739; P -0.85; D -0.837; Q -0.428; Y -0.781; W -0.708; F -0.497; L -0.607
P37: E 0.149; I -0.196; F -0.306; N 0.078; W -0.642; Q 0.324; D 0.07; H -0.034; Y -0.305; L -0.214; C -0.34; R 0.088; S 0.156; M -0.101; K 0.139; A -0.231; T -0.09; G -0.046; V -0.072
V35: Y -0.086; R -0.1; P -0.341; L -0.234; W -0.445; N -0.254; H 0.293; M -0.51; K -0.076
A41: W -0.383; M -0.05; V -0.102; H -0.068; T -0.089; R -0.251; S -0.014; Q 0.023; G -0.08; F -0.379; K -0.173; I -0.574; Y -0.184; P -0.593; D -0.287; C 0.014; E -0.032; L -0.032
T42: E -0.128; D -0.24; S -0.116; I -0.342; H -0.481; Q -0.023; N -0.23; M -0.153; W -0.37; C -0.223; P -0.895; L -0.294; A -0.162; F -0.395; R -0.151
V38: N -0.012; K 0.314; F 0.084; E 0.287; S 0.074; W -0.222; T 0.016; I -0.16; R 0.172; M -0.003; Q 0.091; D -0.184; H -0.222; C -0.099; A 0.001; G 0.082
D44: M -0.271; H -0.514; E -0.334; F 0.009; R -0.403; Q -0.25; Y -0.55; P -0.274; G -0.048; V -0.299; I -0.457; S -0.294; C -0.391; W -0.429; T -0.14; L -0.453; N -0.047
G43: P -0.718; E -0.187; D -0.125; I -0.744; L -0.494; T -0.467; M -0.414; Q -0.176; Y -0.703; A -0.138; H -0.701; C -0.421; R -0.135; V -0.679; N -0.35
G40: M -0.107; I -0.394; A -0.08; P -0.595; Y -0.168; C -0.023; F -0.012; D 0.343; E 0.13; K 0.183; H 0.051; Q -0.172; N -0.134; S -0.052; R 0.021; T -0.063
